Assay results taken from paper PMC2976518.
“And” between values parts separate entries of the source, which are not always exact repeats. Equal values may be shown once. Read-outs that look alike come from different tables or passages of the source.

Tests used:
[1] = target: I100T Sin (mildly activated Sin mutant) (Staphylococcus aureus (plasmid pI9789)); assay: AUC
[2] = target: I100T Sin (mildly activated Sin mutant) (Staphylococcus aureus (plasmid pI9789)); assay: AUC; remark: listed apart in the source
[3] = target: S9A/R54E/Q115R Sin (highly activated Sin mutant with the active site serine changed) (Staphylococcus aureus (plasmid pI9789)); assay: AUC
[4] = target: S9A/R54E/Q115R Sin (highly activated Sin mutant with the active site serine changed) (Staphylococcus aureus (plasmid pI9789)); assay: AUC; remark: listed apart in the source
Sin I100T = Sin I100T (Staphylococcus aureus (plasmid pI9789), UniProt Q53757 1-202, I100T); assay: AUC sedimentation velocity
Sin S9A/R54E/Q115R = Sin S9A/R54E/Q115R (Staphylococcus aureus (plasmid pI9789), UniProt Q53757 1-202, S9A;R54E;Q115R); assay: AUC sedimentation velocity and equilibrium

Molecule: I100T Sin (mildly activated Sin mutant) (enzyme)
- stoichiometry N [1]: 2
- stoichiometry N [2]: 2

Molecule: S9A/R54E/Q115R Sin (highly activated Sin mutant with the active site serine changed) (enzyme)
- Kd [3]: 400 nM
- stoichiometry N [3]: 2 and 4
- Kd [4]: 450 nM

B1: 52-mer site I dsDNA (AUC) (dsDNA)
DNA 1: GCCTAGTTCTTTGTGAAATTTGGGTATACCCTAATCATACAAGCTTGATCTG
DNA 2: CAGATCAAGCTTGTATGATTAGGGTATACCCAAATTTCACAAAGAACTAGGC
- binding result (Sin I100T): binds
- binding result (Sin S9A/R54E/Q115R): binds
